Here are results for one molecule from US12497461B2, “Human NTCP-binding antibody capable of inhibiting infection of hepatitis B virus (HBV) to human hepatocytes” (priority 2019, dated 2025).

The target of the experiment is T1, human NTCP (Homo sapiens, UniProt Q14973).
T1 construct: expressed in transfected cells; host or cells: HepG2 cells, lentiviral transduction
T1 sequence (Q14973 1-349): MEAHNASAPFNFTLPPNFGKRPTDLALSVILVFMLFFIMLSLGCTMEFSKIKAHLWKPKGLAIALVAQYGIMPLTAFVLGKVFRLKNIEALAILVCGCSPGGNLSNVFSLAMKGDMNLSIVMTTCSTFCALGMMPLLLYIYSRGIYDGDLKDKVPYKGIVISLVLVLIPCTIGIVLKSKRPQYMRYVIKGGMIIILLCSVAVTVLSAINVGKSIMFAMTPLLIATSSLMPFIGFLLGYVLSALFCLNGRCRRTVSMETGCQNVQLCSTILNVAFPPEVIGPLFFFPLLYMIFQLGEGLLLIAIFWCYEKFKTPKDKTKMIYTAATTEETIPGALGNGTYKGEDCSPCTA
As to the kind of experiment: In vitro bile acid ([3H]-taurocholic acid) uptake in human NTCP-expressing HepG2 (Example 1). The class given is cell-based.

B1: N6HB426-20 antibody: anti-human NTCP monoclonal antibody from a sub-clone of N6HB426 hybridoma; VH SEQ ID NO: 3, VL SEQ ID NO: 4 (antibody, V domains shown)
VH: QVQLQQSGAELVKPGASVKLSCKASDFTFTEYTIHWIKQMSGQGLEWIGWFYPGSGDIKYSEKFKDKATLTADKSSSTVYMELNRLTSEDSAVYFCARHMRDFRGFYYGRFYFDYWGQGTTLTVSS
VL: EIVLTQSPAIMSASPGEKVTITCRASSSVSSSYLHWYQQKSGVSPKLWIYSTSNLASGVPARFSGSGSGTSYSLTINSVEAEDAATYYCQQYSGYRWTFGGGTTLEIKRA
modifications: N6HB426 antibody heavy chain variable region; N6HB426 antiibody light chain variable region
B1: the “inhibition of bile acid uptake” value (1000 nM, 1 µM) worked out at 3%; the “inhibition of bile acid uptake” value (1000 nM, listed as purified N6HB426 antibody, 1 µM) is “at most 2%”; the “inhibition of bile acid uptake” value (at concentration required for inhibition of infection (IC50 20 to 30 nM)) is given as “virtually did not inhibit”.
